Results published in patent publication US20180037631A1 (Bristol-Myers Squibb, published 2018).
Where a chain is given by its changes, count along the chain named. Names and notes keep the numbering of the source. Values joined by “and” are separate entries in the source; they are usually repeats but may differ in a detail not shown here. Equal values may be shown once.

B1: I1-GS10-E5 pegylated, His-tagged (designed binder)
chain: MGVSDVPRDLEVVAATPTSLLISWSARLKVARYYRITYGETGGNSPVQEFTVPKNVYTATISGLKPGVDYTITVYAVTRFRDYQPISINYRTEIDKGSGSGSGSGSGSGSGSGSGSVSDVPRDLEVVAATPTSLLISWWAPVDRYQYYRITYGETGGNSPVQEFTVPRDVYTATISGLKPGVDYTITVYAVTDYKPHADGPHTYHESPISINYRTEIDKPCQHHHHHH
modifications: 40 kDa branched PEG on the Cys of the C-terminal Cys tail
notes: also called I1-GS10-E5 (with Peg)
B2: I1-GS10-E105 pegylated, His-tagged (designed binder)
chain: B1 chain with W139D, V142T, D143S, R168G, D169G, V170L, Y171S
modifications: 40 kDa branched PEG on the Cys of the C-terminal Cys tail
B3: I1-GS10-E85 pegylated, His-tagged (designed binder)
chain: MGVSDVPRDLEVVAATPTSLLISWSARLKVARYYRITYGETGGNSPVQEFTVPKNVYTATISGLKPGVDYTITVYAVTRFRDYQPISINYRTEIDKGSGSGSGSGSGSGSGSGSGSVSDVPRDLEVVAATPTSLLISWTQGSTHYQYYRITYGETGGNSPVQEFTVPGMVYTATISGLKPGVDYTITVYAVTDYFDRSTHEYKYRTTPISINYRTEIDKPCQHHHHHH
modifications: 40 kDa branched PEG on the Cys of the C-terminal Cys tail
B4: I1-GSGCGS8-E5 pegylated (designed binder)
chain: MGVSDVPRDLEVVAATPTSLLISWSARLKVARYYRITYGETGGNSPVQEFTVPKNVYTATISGLKPGVDYTITVYAVTRFRDYQPISINYRTEIEKGSGCGSGSGSGSGSGSGSGSVSDVPRDLEVVAATPTSLLISWWAPVDRYQYYRITYGETGGNSPVQEFTVPRDVYTATISGLKPGVDYTITVYAVTDYKPHADGPHTYHESPISINYRTEHHHHHH
modifications: PEG on the Cys of the GSGCGS8 linker
notes: alternative clone of I1-GS10-E5 pegylated; tail of first monomer EIEK (D to E); also called I1-GSGCGS8-E5(3)
B5: I1(S62C)-GS10-E5 pegylated (designed binder)
chain: B4 chain with S62C, C100S
modifications: PEG on Cys at position 62 of I1 (position of SEQ ID NO: 1)
notes: also called I1(S62C)-GS10-E5(5)
B6: I1(S91C)-GS10-E5 pegylated (designed binder)
chain: B4 chain with S87C, C100S
modifications: PEG on Cys at position 91 of I1 (position of SEQ ID NO: 1)
notes: also called I1(S91C)-GS10-E5(7)
B7: I1-GS10-E5(S62C) pegylated (designed binder)
chain: B4 chain with C100S, S176C
modifications: PEG on Cys at position 62 of E5 (position of SEQ ID NO: 1)
notes: also called I1-GS10-E5(S62C)(6)
B8: I1-GS10-E5(S91C) pegylated (designed binder)
chain: B4 chain with C100S, S210C
modifications: PEG on Cys at position 91 of E5 (position of SEQ ID NO: 1)
notes: also called I1-GS10-E5(S91C)(8)
B9: I1-GS10-E5-GSGC pegylated (designed binder)
chain: MGVSDVPRDLEVVAATPTSLLISWSARLKVARYYRITYGETGGNSPVQEFTVPKNVYTATISGLKPGVDYTITVYAVTRFRDYQPISINYRTEIEKGSGSGSGSGSGSGSGSGSGSVSDVPRDLEVVAATPTSLLISWWAPVDRYQYYRITYGETGGNSPVQEFTVPRDVYTATISGLKPGVDYTITVYAVTDYKPHADGPHTYHESPISINYRTEGSGCHHHHHH
modifications: PEG on the Cys of the GSGC tail of E5
notes: alternative clone of I1-GS10-E5 pegylated; also called I1-GS10-E5-GSGC(4)
B10: I1-GS10-E5 pegylated without the 6HIS tag (designed binder)
chain: B4 chain with E95D, C100S, H217I, H218D, H219K, H220P, H221C, H222Q
modifications: PEG on the Cys of the C-terminal Cys tail
notes: Whether the D-to-E change in the tail of the first monomer applies to this construct is not clear; also called I1-GS10-E5 pegylated(1)
B11: I1-GS10-E1 pegylated, His-tagged (designed binder)
chain: MGVSDVPRDLEVVAATPTSLLISWSARLKVARYYRITYGETGGNSPVQEFTVPKNVYTATISGLKPGVDYTITVYAVTRFRDYQPISINYRTEIDKGSGSGSGSGSGSGSGSGSGSVSDVPRDLEVVAATPTSLLISWVAGAEDYQYYRITYGETGGNSPVQEFTVPHDLVTATISGLKPGVDYTITVYAVTDMMHVEYTEHPISINYRTEIDKPCQHHHHHH
modifications: 40 kDa branched PEG on the Cys of the C-terminal Cys tail

biological target: mouse EGFR (mouse, UniProt Q01279 25-647, limits assumed); experiment: SPR Biacore

Row | Binder | Kd [nM]
1 | B1 | 3.4
2 | B2 | 2.7
3 | B3 | 13.9

biological target: rat EGFR (rat, UniProt A0ABK0LZB0 35-1214); experiment: SPR Biacore

Row | Binder | Kd [nM]
4 | B1 | 3.6
5 | B2 | 2.9
6 | B3 | 10.7

biological target: monkey EGFR (monkey); experiment: SPR Biacore

Row | Binder | Kd [nM]
7 | B1 | 5.1
8 | B2 | 4.4
9 | B3 | 7

biological target: T1, Recombinant human EGFR-Fc (aa 1-645 of the extracellular domain of human EGFR fused to human Fc) (human, UniProt P00533 25-645); experiment: SPR Biacore
T1 construct: range 1-645; bought from R&D Systems; also called EGFR645-Fc; EGFR-Fc (HER-1); not shown: human Fc

Row | Binder | Kd [nM]
10 | B4 | 4
11 | B5 | 8.7
12 | B6 | 17
13 | B7 | 1.7
14 | B8 | 17.9
15 | B9 | 1.4

biological target: T2, IGF1R-Fc (extracellular domain of human IGF1R aa 1-932 fused to hinge and constant regions of human IgG1) (human, UniProt P08069 31-932); experiment: SPR Biacore
T2 construct: range 1-932; made in house by transient transfection, purified on Protein A; also called IGF-IR-Fc; not shown: hinge and constant regions of human IgG1

Row | Binder | Kd [nM]
16 | B4 | 0.29
17 | B5 | 0.7
18 | B6 | 7.16
19 | B10 | 0.23
20 | B7 | 0.26
21 | B8 | 0.28
22 | B9 | 0.25

biological target: T3, IGF-IR on human tumour cells (H292, MCF-7, RH41) (human, UniProt P08069 31-1367); experiment: cell-based or functional assay

Row | Binder | inhibition of RH41 cell proliferation, IC50 [nM]
23 | B1 | 0.2

biological target: T2, IGF1R-Fc (extracellular domain of human …); experiment: SPR Biacore, IGF1R-Fc

Row | Binder | Kd | koff | kon
24 | B4 | 0.29 nM | 0.000245 s⁻¹ | 852000 M⁻¹ s⁻¹
25 | B5 | 0.7 nM | 0.000234 s⁻¹ | 334000 M⁻¹ s⁻¹
26 | B6 | 7.16 nM | 0.000589 s⁻¹ | 82200 M⁻¹ s⁻¹
27 | B10 | 0.22 nM and 0.23 nM | 0.000288 s⁻¹ and 0.000276 s⁻¹ | 1.28e+06 M⁻¹ s⁻¹ and 1.22e+06 M⁻¹ s⁻¹
28 | B7 | 0.26 nM | 0.000279 s⁻¹ | 1.07e+06 M⁻¹ s⁻¹
29 | B8 | 0.28 nM | 0.000281 s⁻¹ | 986000 M⁻¹ s⁻¹
30 | B9 | 0.25 nM | 0.000265 s⁻¹ | 1.07e+06 M⁻¹ s⁻¹

biological target: T4, EGFR on the surface of human tumour cells (A431, H292) (human, UniProt P00533 25-1210); experiment: cell-based or functional assay

Row | Binder | pEGFR IC50 [nM] | pERK IC50 [nM]
31 | B4 | 19.8 | 8
32 | B5 | 21 | 10
33 | B6 | 22.7 | 15
34 | B10 | 30 | 11
35 | B7 | 68.4 | 30
36 | B8 | 22.6 | 29
37 | B9 | 28.7 | 19

biological target: T3, IGF-IR on human tumour cells (H292, …); experiment: cell-based or functional assay; remark: another data set of the same source

Row | Binder | pIGFR IC50 [nM]
38 | B4 | 1.4
39 | B5 | 1.9
40 | B6 | 6.2
41 | B10 | 1.2
42 | B7 | 2.2
43 | B8 | 2.1
44 | B1 | 2.2
45 | B9 | 1.2

biological target: T1, Recombinant human EGFR-Fc (aa 1-645 of …); experiment: SPR Biacore, EGFR645-Fc

Row | Binder | Kd [nM] | koff [s⁻¹] | kon [M⁻¹ s⁻¹]
46 | B4 | 4 | 0.000118 | 29400
47 | B5 | 8.7 | 0.000199 | 22800
48 | B6 | 17 | 0.000334 | 19600
49 | B7 | 1.7 | 3.04e-05 | 17800
50 | B8 | 17.9 | 0.000193 | 10800
51 | B9 | 1.4 | 4.52e-05 | 33400

biological target: T4, EGFR on the surface of human tumour …; experiment: cell-based or functional assay; remark: another data set of the same source

Row | Binder | IC50, EGF-stimulated EGFR phosphorylation, A431 cells, In Cell Western [nM] | IC50, EGF-stimulated EGFR phosphorylation, H292 cells, ELISA [nM] | IC50, EGF-stimulated ERK phosphorylation, A431 cells, In Cell Western [nM]
52 | B11 | 302 | 127 | 300

biological target: T3, IGF-IR on human tumour cells (H292, …); experiment: cell-based or functional assay; remark: another data set of the same source

Row | Binder | IC50, IGF1-stimulated IGFR phosphorylation, H292 cells, ELISA [nM]
53 | B11 | 0.9

biological target: T4, EGFR on the surface of human tumour …; experiment: cell-based or functional assay; remark: another data set of the same source

Row | Binder | IC50, EGF-induced EGFR phosphorylation, A431 cells, In Cell Western [nM] | IC50, EGF-induced ERK phosphorylation, A431 cells, In Cell Western [nM] | IC50, EGF-stimulated EGFR phosphorylation, H292 cells, ELISA [nM]
54 | B3 | 22 | 23 | 8

biological target: T3, IGF-IR on human tumour cells (H292, …); experiment: cell-based or functional assay; remark: another data set of the same source

Row | Binder | IC50, IGF1-stimulated IGFR phosphorylation, H292 cells, ELISA [nM]
55 | B2 | 0.5
56 | B3 | 0.7

biological target: T2, IGF1R-Fc (extracellular domain of human …); experiment: SPR Biacore, IGF1R-Fc; against I1-GS10-E5 pegylated

Row | Binder | ΔKd (fold) | Δka (fold) | Δkd (fold)
57 | B4 | 0.9 | 0.8 | 1.1
58 | B5 | 0.4 | 0.3 | 1.1
59 | B6 | 0.04 | 0.1 | 0.4
60 | B10 | 1.1 | 1.2 | 0.9
61 | B7 | 1 | 1 | 0.9
62 | B8 | 0.9 | 0.9 | 0.9
63 | B9 | 1 | 1 | 1

biological target: T1, Recombinant human EGFR-Fc (aa 1-645 of …); experiment: SPR Biacore, EGFR645-Fc; against I1-GS10-E5 Pegylated

Row | Binder | ΔKd (fold) | Δka (fold) | Δkd (fold)
64 | B4 | 0.7 | 1 | 0.6
65 | B5 | 0.3 | 0.8 | 0.4
66 | B6 | 0.2 | 0.7 | 0.2
67 | B7 | 1.6 | 0.6 | 2.4
68 | B8 | 0.2 | 0.4 | 0.4
69 | B9 | 2 | 1.1 | 1.6

biological target: T1, Recombinant human EGFR-Fc (aa 1-645 of …); experiment: not given

Row | Binder | Kd [nM]
70 | B3 | 5.97

biological target: T2, IGF1R-Fc (extracellular domain of human …); experiment: not given

Row | Binder | Kd [nM]
71 | B3 | 0.43

biological target: T4, EGFR on the surface of human tumour …; experiment: not given

Row | Binder | IC50 [nM]
72 | B3 | 37.8
